Assay results taken from article PMC10417383, “DNA-Binding Activity of CAMTA3 Is Essential for Its Function: Identification of Critical Amino Acids for Its Transcriptional Activity”.
Residue numbers refer to the chain shown, from its start.

Experiments:
Test in all cases: EMSA; 500 ng protein; 1X LightShift EMSA binding buffer, 50 ng/ul poly(dI-dC), 20 fmol probe in 20 ul, +/- 4 pmol unlabeled DNA, room temperature 30 min; 5% native PAGE, 0.5X TBE; pH and salt not given
Conditions in all cases: protein: recombinant; tags: His (pET28a); label: 3'-biotin on strand 1; blunt
CAMTA3 CG-1 M1 = target: T1, CAMTA3 CG-1 M1 (Arabidopsis thaliana, UniProt Q8GSA7 1-153, W26A)
T1 sequence: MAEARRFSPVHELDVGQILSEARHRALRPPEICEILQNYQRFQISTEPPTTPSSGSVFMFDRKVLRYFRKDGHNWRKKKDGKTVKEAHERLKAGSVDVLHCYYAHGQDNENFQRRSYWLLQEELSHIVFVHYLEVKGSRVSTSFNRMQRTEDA

CAMTA3 CG-1 M3 = target: T2, CAMTA3 CG-1 M3 (Arabidopsis thaliana, UniProt Q8GSA7 1-153, H88A)
T2 sequence: T1 sequence with A26W, H88A

CAMTA3 CG-1 M6 = target: T3, CAMTA3 CG-1 M6 (Arabidopsis thaliana, UniProt Q8GSA7 1-153, Y132A)
T3 sequence: T1 sequence with A26W, Y132A

CAMTA3 CG-1 M2 = target: T4, CAMTA3 CG-1 M2 (Arabidopsis thaliana, UniProt Q8GSA7 1-153, W75A)
T4 sequence: T1 sequence with A26W, W75A

CAMTA3 CG-1 M4 = target: T5, CAMTA3 CG-1 M4 (Arabidopsis thaliana, UniProt Q8GSA7 1-153, Y102A;Y103A)
T5 sequence: T1 sequence with A26W, Y102A, Y103A

Measured: binding result

B1: PDF1.4 promoter probe (dsDNA)
DNA 1: CGTGAAAGTCACGCGCCAAGAACAAA
DNA 2: TTTGTTCTTGGCGCGTGACTTTCACG
no binding: all assays above
